Patent US20180104312A1 (Eli Lilly, published 2018)
Where a chain is given by its changes, count along the chain named. Like-named read-outs stand apart in the source and are kept apart here. No end group written: not given here.

Experiments:
[1] = target: T1, human Glucagon-Like Peptide-1 receptor (human, UniProt P43220 24-463); assay: cell-based or functional assay
Target sequence in this assay (P43220 24-463): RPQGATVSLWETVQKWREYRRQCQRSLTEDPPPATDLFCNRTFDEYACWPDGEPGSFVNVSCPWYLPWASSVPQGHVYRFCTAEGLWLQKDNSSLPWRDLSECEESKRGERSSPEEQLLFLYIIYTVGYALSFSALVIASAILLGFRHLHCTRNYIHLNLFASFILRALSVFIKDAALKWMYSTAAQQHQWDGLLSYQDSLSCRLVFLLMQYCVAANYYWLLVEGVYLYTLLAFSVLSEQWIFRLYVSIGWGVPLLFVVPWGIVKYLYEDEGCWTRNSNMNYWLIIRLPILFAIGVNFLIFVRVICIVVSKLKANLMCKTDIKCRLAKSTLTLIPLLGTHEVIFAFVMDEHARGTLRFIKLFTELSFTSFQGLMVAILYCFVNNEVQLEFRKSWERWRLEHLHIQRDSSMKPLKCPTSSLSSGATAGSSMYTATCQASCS

[2] = target: T2, human glucose-dependent insulinotropic polypeptide receptor (human) (UniProt P48546); assay: cell-based or functional assay
T2 sequence (looked up): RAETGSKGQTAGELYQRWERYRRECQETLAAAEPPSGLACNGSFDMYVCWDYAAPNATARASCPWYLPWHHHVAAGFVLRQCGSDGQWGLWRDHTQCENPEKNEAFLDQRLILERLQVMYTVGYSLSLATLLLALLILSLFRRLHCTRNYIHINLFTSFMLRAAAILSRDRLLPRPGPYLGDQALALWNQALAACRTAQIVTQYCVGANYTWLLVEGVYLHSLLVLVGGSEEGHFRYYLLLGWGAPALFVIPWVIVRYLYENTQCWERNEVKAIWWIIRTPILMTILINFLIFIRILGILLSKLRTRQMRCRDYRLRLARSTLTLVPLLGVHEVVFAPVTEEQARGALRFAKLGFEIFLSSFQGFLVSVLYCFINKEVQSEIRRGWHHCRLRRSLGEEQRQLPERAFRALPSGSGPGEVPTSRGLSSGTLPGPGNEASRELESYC

[3] = target: T3, recombinant human glucagon receptor (human, UniProt P47871 26-477); assay: cell-based or functional assay
T3 sequence (P47871 26-477): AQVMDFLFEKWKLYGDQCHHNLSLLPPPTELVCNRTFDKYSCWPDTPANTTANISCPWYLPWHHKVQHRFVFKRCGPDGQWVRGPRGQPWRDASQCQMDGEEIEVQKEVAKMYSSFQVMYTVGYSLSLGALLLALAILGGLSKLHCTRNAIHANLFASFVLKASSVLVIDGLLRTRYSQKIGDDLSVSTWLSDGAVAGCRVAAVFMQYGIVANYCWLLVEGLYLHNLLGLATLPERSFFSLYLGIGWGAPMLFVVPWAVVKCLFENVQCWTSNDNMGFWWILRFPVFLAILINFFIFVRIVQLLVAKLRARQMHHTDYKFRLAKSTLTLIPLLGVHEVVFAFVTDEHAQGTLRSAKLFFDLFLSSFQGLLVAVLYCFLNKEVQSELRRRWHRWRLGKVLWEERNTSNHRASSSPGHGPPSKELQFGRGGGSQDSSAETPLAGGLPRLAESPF

mouse glucagon receptor = target: T4, mouse glucagon receptor (mouse, UniProt Q61606 27-485); assay: I-125-Gcg competition SPA, membranes of 293HEK cells expressing mGcg-R
T4 construct: whole, on cells; Used as membranes of a clonal 293HEK line; also called mGcg-R; mGcgR
T4 sequence (Q61606 27-485): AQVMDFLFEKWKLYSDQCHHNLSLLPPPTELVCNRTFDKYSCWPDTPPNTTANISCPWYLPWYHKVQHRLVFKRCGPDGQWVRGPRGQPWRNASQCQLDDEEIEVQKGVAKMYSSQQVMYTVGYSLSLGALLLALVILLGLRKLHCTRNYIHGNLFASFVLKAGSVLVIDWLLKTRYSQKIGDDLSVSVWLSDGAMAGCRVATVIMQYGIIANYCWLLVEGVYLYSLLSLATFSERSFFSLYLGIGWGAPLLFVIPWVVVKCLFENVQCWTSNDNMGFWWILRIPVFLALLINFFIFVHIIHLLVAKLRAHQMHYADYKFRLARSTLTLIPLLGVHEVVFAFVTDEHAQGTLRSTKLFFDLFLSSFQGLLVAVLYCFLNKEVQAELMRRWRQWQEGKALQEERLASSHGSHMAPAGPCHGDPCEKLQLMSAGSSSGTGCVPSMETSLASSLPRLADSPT
Description: (§1) The specific activity is 2200 Ci/mmol. KD determination is performed by homologous competition or saturation binding analysis.
(§2) The receptor binding assay is carried out using a Scintillation Proximity Assay (SPA) format with wheat germ agglutinin (WGA) beads (Perkin Elmer). The binding buffer contains 25 mM 4-(2-hydroxyethyl)-1-piperazineethanesulfonic acid (HEPES), pH 7.4, 2.5 mM CaCl₂, 1 mM MgCl₂, 0.1% (w/v) bacitracin (Affymetrix), 0.003% (w/v) Polyoxyethylenesorbitan monolaurate (TWEEN®-20) and Roche Complete™ Protease Inhibitors without EDTA.

[4] = target: T5, human glucose-dependent insulinotropic polypeptide receptor (human, UniProt P48546 22-466); assay: cell-based or functional assay
T5 sequence (looked up): T2 sequence (looked up)

[5] = target: T1, human Glucagon-Like Peptide-1 receptor; assay: cell-based or functional assay; remark: listed apart in the source
[6] = target: T3, recombinant human glucagon receptor; assay: cell-based or functional assay; remark: listed apart in the source
[7] = target: T5, human glucose-dependent insulinotropic …; assay: cell-based or functional assay; remark: listed apart in the source
[8] = target: T1, human Glucagon-Like Peptide-1 receptor; assay: cell-based or functional assay; remark: listed apart in the source
[9] = target: T3, recombinant human glucagon receptor; assay: cell-based or functional assay; remark: listed apart in the source
rat glucagon receptor = target: T6, rat glucagon receptor (rat, UniProt P30082 27-485); assay: I-125-Gcg competition SPA, membranes of 293HEK cells expressing rGcg-R
T6 construct: whole, on cells; Used as membranes of transiently transfected 293HEK cells; also called rGcg-R; rat Gcg-R
T6 sequence (P30082 27-485): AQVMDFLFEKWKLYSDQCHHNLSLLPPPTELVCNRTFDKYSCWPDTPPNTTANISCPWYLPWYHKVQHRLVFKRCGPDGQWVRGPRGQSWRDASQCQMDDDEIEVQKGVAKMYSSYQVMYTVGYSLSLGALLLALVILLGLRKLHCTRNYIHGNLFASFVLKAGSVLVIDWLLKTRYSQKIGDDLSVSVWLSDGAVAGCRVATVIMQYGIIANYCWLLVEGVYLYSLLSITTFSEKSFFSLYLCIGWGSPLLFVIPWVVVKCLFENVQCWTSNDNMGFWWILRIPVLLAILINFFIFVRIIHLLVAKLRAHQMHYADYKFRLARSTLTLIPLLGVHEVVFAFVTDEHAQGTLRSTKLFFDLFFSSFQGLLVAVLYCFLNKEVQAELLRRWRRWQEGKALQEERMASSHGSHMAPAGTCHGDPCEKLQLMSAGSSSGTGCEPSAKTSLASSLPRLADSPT
Description: as §1, §2

[10] = target: T5, human glucose-dependent insulinotropic …; assay: cell-based or functional assay; remark: listed apart in the source
[11] = target: T1, human Glucagon-Like Peptide-1 receptor; assay: cell-based or functional assay; remark: listed apart in the source
[12] = target: T3, recombinant human glucagon receptor; assay: cell-based or functional assay; remark: listed apart in the source
[13] = target: T3, recombinant human glucagon receptor; assay: I-125-Gcg competition SPA, membranes of 293HEK cells expressing hGcg-R
Description: as §1, §2

Molecule: dulaglutide (Fc fusion)
- EC50, cAMP, GLP-1 Receptor Assay; sample C6.5-4 C.-4 wk [1]: 0.37 nM
- EC50, cAMP, GLP-1 Receptor Assay; sample C6.5-40 C.-4 wk [1]: 0.31 nM
- EC50, cAMP, GLP-1 Receptor Assay; sample C6.5MT-4 C.-4 wk [1]: 0.4 nM
- EC50, cAMP, GLP-1 Receptor Assay; sample C6.5MT-40 C.-4 wk [1]: 0.29 nM
- EC50, cAMP, GIP Receptor Assay; sample C6.5-4 C.-4 wk [2]: > 100 nM
- EC50, cAMP, GIP Receptor Assay; sample C6.5-40 C.-4 wk [2]: > 100 nM
- EC50, cAMP, GIP Receptor Assay; sample C6.5MT-4 C.-4 wk [2]: > 100 nM
- EC50, cAMP, GIP Receptor Assay; sample C6.5MT-40 C.-4 wk [2]: > 100 nM
- EC50, cAMP, Gcg Receptor Assay; sample C6.5-4 C.-4 wk [3]: 51.9 nM
- EC50, cAMP, Gcg Receptor Assay; sample C6.5-40 C.-4 wk [3]: > 100 nM
- EC50, cAMP, Gcg Receptor Assay; sample C6.5MT-4 C.-4 wk [3]: 54 nM
- EC50, cAMP, Gcg Receptor Assay; sample C6.5MT-40 C.-4 wk [3]: > 100 nM

B1: Example 1 (peptide)
peptide: YXQGTFTSDYSKYLDXKKAXEFVEWLLETGPSSGAPPPS
modifications: Aib at positions 2 and 16; K20 epsilon-amino group conjugated with ([2-(2-Amino-ethoxy)-ethoxy]-acetyl)2-(γGlu)2-CO-(CH2)16-CO2H; C-terminal primary amide
- Ki (mouse glucagon receptor): 1.92 nM
- EC50, cAMP, GIP Receptor Assay; sample T7-4 C.-4 wk [4]: > 100 nM
- EC50, cAMP, GIP Receptor Assay; sample T7-40 C.-4 wk [4]: > 100 nM
- EC50, cAMP, GIP Receptor Assay; sample T7m-4 C.-4 wk [4]: > 100 nM
- EC50, cAMP, GIP Receptor Assay; sample T7m-40 C.-4 wk [4]: > 100 nM
- EC50, cAMP, GLP-1 Receptor Assay; sample T7-4 C.-4 wk [5]: > 100 nM
- EC50, cAMP, GLP-1 Receptor Assay; sample T7-40 C.-4 wk [5]: 57.5 nM
- EC50, cAMP, GLP-1 Receptor Assay; sample T7m-4 C.-4 wk [5]: 43.8 nM
- EC50, cAMP, GLP-1 Receptor Assay; sample T7m-40 C.-4 wk [5]: 49.7 nM
- EC50, cAMP, Gcg Receptor Assay; sample T7-4 C.-4 wk [6]: 0.0203 nM
- EC50, cAMP, Gcg Receptor Assay; sample T7-40 C.-4 wk [6]: 0.0217 nM
- EC50, cAMP, Gcg Receptor Assay; sample T7m-4 C.-4 wk [6]: 0.023 nM
- EC50, cAMP, Gcg Receptor Assay; sample T7m-40 C.-4 wk [6]: 0.0194 nM
- EC50, cAMP, GIP Receptor Assay; sample C6.5-4 C.-4 wk [7]: > 100 nM
- EC50, cAMP, GIP Receptor Assay; sample C6.5-40 C.-4 wk [7]: > 100 nM
- EC50, cAMP, GIP Receptor Assay; sample C6.5MT-4 C.-4 wk [7]: > 100 nM
- EC50, cAMP, GIP Receptor Assay; sample C6.5MT-40 C.-4 wk [7]: > 100 nM
- EC50, cAMP, GLP-1 Receptor Assay; sample C6.5-4 C.-4 wk [8]: 41.6 nM
- EC50, cAMP, GLP-1 Receptor Assay; sample C6.5-40 C.-4 wk [8]: 54.6 nM
- EC50, cAMP, GLP-1 Receptor Assay; sample C6.5MT-4 C.-4 wk [8]: 55.6 nM
- EC50, cAMP, GLP-1 Receptor Assay; sample C6.5MT-40 C.-4 wk [8]: 47.9 nM
- EC50, cAMP, Gcg Receptor Assay; sample C6.5-4 C.-4 wk [9]: 0.0178 nM
- EC50, cAMP, Gcg Receptor Assay; sample C6.5-40 C.-4 wk [9]: 0.0243 nM
- EC50, cAMP, Gcg Receptor Assay; sample C6.5MT-4 C.-4 wk [9]: 0.0188 nM
- EC50, cAMP, Gcg Receptor Assay; sample C6.5MT-40 C.-4 wk [9]: 0.0146 nM
- Ki (rat glucagon receptor): 9.78 nM
- EC50, intracellular cAMP (HTRF) [10]: > 500 nM
- EC50, intracellular cAMP (HTRF) [11]: 73.9 nM
- EC50, intracellular cAMP (HTRF) [12]: 0.00436 nM
- Ki [13]: 2.04 nM

B2: Example 3 (peptide)
peptide: B1 peptide with T7L
modifications: Aib at positions 2 and 16; K20 epsilon-amino group conjugated with ([2-(2-Amino-ethoxy)-ethoxy]-acetyl)2-(γGlu)2-CO-(CH2)16-CO2H; C-terminal primary amide
- Ki (mouse glucagon receptor): 0.174 nM
- EC50, cAMP, GIP Receptor Assay; sample T7-4 C.-4 wk [4]: > 100 nM
- EC50, cAMP, GIP Receptor Assay; sample T7-40 C.-4 wk [4]: > 100 nM
- EC50, cAMP, GIP Receptor Assay; sample T7m-4 C.-4 wk [4]: > 100 nM
- EC50, cAMP, GIP Receptor Assay; sample T7m-40 C.-4 wk [4]: > 100 nM
- EC50, cAMP, GLP-1 Receptor Assay; sample T7-4 C.-4 wk [5]: > 100 nM
- EC50, cAMP, GLP-1 Receptor Assay; sample T7-40 C.-4 wk [5]: > 100 nM
- EC50, cAMP, GLP-1 Receptor Assay; sample T7m-4 C.-4 wk [5]: > 100 nM
- EC50, cAMP, GLP-1 Receptor Assay; sample T7m-40 C.-4 wk [5]: > 100 nM
- EC50, cAMP, Gcg Receptor Assay; sample T7-4 C.-4 wk [6]: 0.0143 nM
- EC50, cAMP, Gcg Receptor Assay; sample T7-40 C.-4 wk [6]: 0.0249 nM
- EC50, cAMP, Gcg Receptor Assay; sample T7m-4 C.-4 wk [6]: 0.0211 nM
- EC50, cAMP, Gcg Receptor Assay; sample T7m-40 C.-4 wk [6]: 0.0211 nM
- EC50, cAMP, GIP Receptor Assay; sample C6.5-4 C.-4 wk [7]: > 100 nM
- EC50, cAMP, GIP Receptor Assay; sample C6.5-40 C.-4 wk [7]: > 100 nM
- EC50, cAMP, GIP Receptor Assay; sample C6.5MT-4 C.-4 wk [7]: > 100 nM
- EC50, cAMP, GIP Receptor Assay; sample C6.5MT-40 C.-4 wk [7]: > 100 nM
- EC50, cAMP, GLP-1 Receptor Assay; sample C6.5-4 C.-4 wk [8]: > 100 nM
- EC50, cAMP, GLP-1 Receptor Assay; sample C6.5-40 C.-4 wk [8]: > 100 nM
- EC50, cAMP, GLP-1 Receptor Assay; sample C6.5MT-4 C.-4 wk [8]: > 100 nM
- EC50, cAMP, GLP-1 Receptor Assay; sample C6.5MT-40 C.-4 wk [8]: > 100 nM
- EC50, cAMP, Gcg Receptor Assay; sample C6.5-4 C.-4 wk [9]: 0.0369 nM
- EC50, cAMP, Gcg Receptor Assay; sample C6.5-40 C.-4 wk [9]: 0.0257 nM
- EC50, cAMP, Gcg Receptor Assay; sample C6.5MT-4 C.-4 wk [9]: 0.0193 nM
- EC50, cAMP, Gcg Receptor Assay; sample C6.5MT-40 C.-4 wk [9]: 0.0214 nM
- Ki (rat glucagon receptor): 1.56 nM
- EC50, intracellular cAMP (HTRF) [10]: > 500 nM
- EC50, intracellular cAMP (HTRF) [11]: > 100 nM
- EC50, intracellular cAMP (HTRF) [12]: 0.0034 nM
- Ki [13]: 0.287 nM

B3: Example 6 (peptide)
peptide: YXQGTFTSDYSKYLDXKKAXEFVAWLLEE
modifications: Aib at positions 2 and 16; K20 epsilon-amino group conjugated with ([2-(2-Amino-ethoxy)-ethoxy]-acetyl)2-(γGlu)1-CO-(CH2)16-CO2H; C-terminal acid
- Ki (mouse glucagon receptor): 0.123 nM
- Ki (rat glucagon receptor): 0.98 nM
- EC50, intracellular cAMP (HTRF) [10]: > 500 nM
- EC50, intracellular cAMP (HTRF) [11]: > 100 nM
- EC50, intracellular cAMP (HTRF) [12]: 0.00413 nM
- Ki [13]: 0.316 nM

B4: Example 7 (peptide)
peptide: YXQGTFTSDYSKYLDXKKAXEFVAWLLEE
modifications: Aib at positions 2 and 16; K20 epsilon-amino group conjugated with ([2-(2-Amino-ethoxy)-ethoxy]-acetyl)2-(γGlu)1-CO-(CH2)18-CO2H; C-terminal acid
- Ki (mouse glucagon receptor): 0.753 nM
- Ki (rat glucagon receptor): 1.38 nM
- EC50, intracellular cAMP (HTRF) [10]: > 500 nM
- EC50, intracellular cAMP (HTRF) [11]: > 100 nM
- EC50, intracellular cAMP (HTRF) [12]: 0.0166 nM
- Ki [13]: 0.673 nM

Molecule: YAEGTFISDYSIAMDKIHQQDFVNWLLAQKGKKNDWKHNITQ-NH2 [human GIP(1-42)NH2]
- EC50, intracellular cAMP (HTRF) [12]: > 10 nM

B5: Example 2 (peptide)
peptide: B1 peptide
modifications: Aib at positions 2 and 16; K20 epsilon-amino group conjugated with ([2-(2-Amino-ethoxy)-ethoxy]-acetyl)2-(γGlu)2-CO-(CH2)18-CO2H; C-terminal primary amide
- Ki (mouse glucagon receptor): 0.991 nM
- Ki (rat glucagon receptor): 5.59 nM
- EC50, intracellular cAMP (HTRF) [10]: > 500 nM
- EC50, intracellular cAMP (HTRF) [11]: > 100 nM
- EC50, intracellular cAMP (HTRF) [12]: 0.0112 nM
- Ki [13]: 1.07 nM
